The values that follow come from paper PMC7681980.

The target in assay [1] is type I collagen extracted from male Wistar Hannover rat tail tendons (dialyzed) (rat (Wistar Hannover, extracted from tail tendons)) (UniProt P02454). The experiment in a line: ITC; NaOH (4.6 uM in ultrapure water) titrated in 24 aliquots into 950 uL type I collagen (0.2 mg/mL in 0.33% v/v acetic acid), 30.0 ± 0.1 °C, stirred at 300 rpm; self-assembly (fibrillogenesis) triggered by the rise in pH; areas corrected by the acid-base control titration; enthalpy of self-assembly at the isoelectric point; at least triplicate. (In general: Isothermal titration calorimetry measures the heat released or taken up as one component is titrated into another.)

Assay [2] shares this target. The assay is described as above. The source holds these as a separate data set.

Where two headings read alike, the source gives them in different places.

type I collagen extracted from male Wistar Hannover rat tail tendons (dialyzed), P02454 152-1207; P02466 86-1125 (complex; other documents disagree on this pair), sequence (P02454 152-1207): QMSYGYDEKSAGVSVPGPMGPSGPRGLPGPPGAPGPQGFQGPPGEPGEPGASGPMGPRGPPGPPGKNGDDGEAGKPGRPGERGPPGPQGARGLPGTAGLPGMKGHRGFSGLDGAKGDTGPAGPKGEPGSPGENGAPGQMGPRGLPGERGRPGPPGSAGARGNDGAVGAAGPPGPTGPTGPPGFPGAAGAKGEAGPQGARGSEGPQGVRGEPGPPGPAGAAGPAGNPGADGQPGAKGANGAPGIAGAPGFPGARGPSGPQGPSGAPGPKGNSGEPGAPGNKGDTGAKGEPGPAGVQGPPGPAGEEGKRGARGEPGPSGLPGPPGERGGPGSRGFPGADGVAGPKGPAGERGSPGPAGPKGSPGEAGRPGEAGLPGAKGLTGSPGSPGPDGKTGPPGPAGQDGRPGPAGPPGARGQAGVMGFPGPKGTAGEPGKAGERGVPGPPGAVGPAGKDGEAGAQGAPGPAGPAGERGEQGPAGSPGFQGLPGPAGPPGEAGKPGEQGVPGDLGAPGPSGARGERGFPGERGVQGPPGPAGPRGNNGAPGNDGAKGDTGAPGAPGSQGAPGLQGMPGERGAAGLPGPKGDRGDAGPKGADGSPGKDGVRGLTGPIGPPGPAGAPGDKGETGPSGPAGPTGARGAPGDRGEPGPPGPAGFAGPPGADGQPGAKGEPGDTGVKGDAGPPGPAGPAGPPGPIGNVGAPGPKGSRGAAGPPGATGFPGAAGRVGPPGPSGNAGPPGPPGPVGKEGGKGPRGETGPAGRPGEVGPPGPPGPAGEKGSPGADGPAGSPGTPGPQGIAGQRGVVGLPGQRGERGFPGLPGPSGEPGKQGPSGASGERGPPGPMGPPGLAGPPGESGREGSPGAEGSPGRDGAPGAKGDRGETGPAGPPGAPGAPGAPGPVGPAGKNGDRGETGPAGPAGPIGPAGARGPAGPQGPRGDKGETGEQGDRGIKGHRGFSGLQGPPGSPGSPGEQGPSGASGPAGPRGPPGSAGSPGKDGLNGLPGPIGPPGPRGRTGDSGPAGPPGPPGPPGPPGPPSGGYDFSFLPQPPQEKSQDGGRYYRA
type I collagen extracted from male Wistar Hannover rat tail tendons (dialyzed), P02454 152-1207; P02466 86-1125 (complex; other documents disagree on this pair), sequence (P02466 86-1125): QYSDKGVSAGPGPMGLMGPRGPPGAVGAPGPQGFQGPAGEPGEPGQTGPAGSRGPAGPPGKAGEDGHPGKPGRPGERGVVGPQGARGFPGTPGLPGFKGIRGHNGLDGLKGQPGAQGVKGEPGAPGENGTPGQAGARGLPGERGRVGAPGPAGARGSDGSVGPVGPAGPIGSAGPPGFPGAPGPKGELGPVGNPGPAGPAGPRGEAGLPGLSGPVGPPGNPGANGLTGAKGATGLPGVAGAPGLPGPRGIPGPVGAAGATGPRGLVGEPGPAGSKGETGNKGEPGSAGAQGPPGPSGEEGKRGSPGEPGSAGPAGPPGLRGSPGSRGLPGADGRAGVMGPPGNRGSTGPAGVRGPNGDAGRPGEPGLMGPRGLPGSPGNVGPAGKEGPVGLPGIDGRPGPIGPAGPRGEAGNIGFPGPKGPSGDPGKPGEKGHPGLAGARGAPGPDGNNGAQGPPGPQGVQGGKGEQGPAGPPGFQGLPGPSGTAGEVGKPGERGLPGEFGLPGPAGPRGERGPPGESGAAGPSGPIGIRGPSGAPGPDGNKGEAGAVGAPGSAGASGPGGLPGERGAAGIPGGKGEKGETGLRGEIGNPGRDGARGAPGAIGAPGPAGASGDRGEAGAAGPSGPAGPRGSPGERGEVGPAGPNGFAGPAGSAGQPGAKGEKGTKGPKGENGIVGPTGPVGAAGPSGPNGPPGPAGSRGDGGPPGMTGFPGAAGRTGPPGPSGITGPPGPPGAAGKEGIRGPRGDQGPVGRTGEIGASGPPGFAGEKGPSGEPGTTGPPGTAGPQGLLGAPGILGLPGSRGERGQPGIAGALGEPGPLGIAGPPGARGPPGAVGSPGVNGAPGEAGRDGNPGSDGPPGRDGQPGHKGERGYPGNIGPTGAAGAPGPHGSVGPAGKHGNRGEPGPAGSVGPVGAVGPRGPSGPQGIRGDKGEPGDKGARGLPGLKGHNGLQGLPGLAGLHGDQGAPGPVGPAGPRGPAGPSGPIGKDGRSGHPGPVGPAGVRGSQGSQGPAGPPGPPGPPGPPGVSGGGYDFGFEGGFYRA

In the case of “type I collagen extracted from male Wistar Hannover rat tail tendons (dialyzed), P02454 152-1207; P02466 86-1125 (complex; other documents disagree on this pair)”, the dH was 0.000784 kcal/mol in assay [1] and 0.000782 kcal/mol in assay [2].
